{"source": "patent US20150020238", "proteins": {"B1": {"name": "human enterokinase light chain protein produced in transformed rice suspension cells (protein)", "chain": "IVGGSNAKEGAWPWVVGLYYGGRLLCGASLVSSDWLVSAAHCVYGRNLEPSKWTAILGLHMKSNLTSPQTVPRLIDEIVINPHYNRRRKDNDIAMMHLEFKVNYTDYIQPICLPEENQVFPPGRNCSIAGWGTVVYQGTTANILQEADVPLLSNERCQQQMPEYNITENMICAGYEEGGIDSCQGDSGGPLMCQENNRWFLAGVTSFGYKCALPNRPGVYARVSRFTEWIQSFLH"}}, "biological_target": "EGFP-hTNF-α fusion protein comprising the enterokinase-recognizing sequence, P01375", "sequence (P01375 other isoform, or with tags, fused parts or gaps)": "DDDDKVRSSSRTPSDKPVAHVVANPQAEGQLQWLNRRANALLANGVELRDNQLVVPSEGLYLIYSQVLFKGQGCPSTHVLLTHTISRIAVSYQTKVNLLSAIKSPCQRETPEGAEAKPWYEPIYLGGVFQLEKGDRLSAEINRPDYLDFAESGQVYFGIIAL", "data": [{"protein": "B1", "values": [{"measurement": "endopeptidase activity", "value": "exhibited the activity of the human enterokinase light chain protein, i.e., recognizing and cleaving the DDDDK amino acid sequence"}]}]}
